Source: the supplement of paper PMC9876800

Test system: peptide library, one residue held at a place counted from the S/T acceptor
Assay: relative phosphorylation of the sub-library (ratio to the mean residue at this position); higher = residue favoured
Summary of the method: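 Relative sub-library phosphorylation is a ratio to the mean residue at the same position. Purified recombinant kinases were incubated under kinase-specific conditions with biotinylated degenerate peptide sub-libraries, each fixing one residue at one position around a central Ser/Thr, using 50 μM peptide and 50 μM ATP spiked with γ-32P-ATP for 90 min. Spots captured on streptavidin membranes were phosphorimaged and quantified by densitometry.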

Chain of STK33, construct: Full length, human (Q9BYT3 whole entry, looked up): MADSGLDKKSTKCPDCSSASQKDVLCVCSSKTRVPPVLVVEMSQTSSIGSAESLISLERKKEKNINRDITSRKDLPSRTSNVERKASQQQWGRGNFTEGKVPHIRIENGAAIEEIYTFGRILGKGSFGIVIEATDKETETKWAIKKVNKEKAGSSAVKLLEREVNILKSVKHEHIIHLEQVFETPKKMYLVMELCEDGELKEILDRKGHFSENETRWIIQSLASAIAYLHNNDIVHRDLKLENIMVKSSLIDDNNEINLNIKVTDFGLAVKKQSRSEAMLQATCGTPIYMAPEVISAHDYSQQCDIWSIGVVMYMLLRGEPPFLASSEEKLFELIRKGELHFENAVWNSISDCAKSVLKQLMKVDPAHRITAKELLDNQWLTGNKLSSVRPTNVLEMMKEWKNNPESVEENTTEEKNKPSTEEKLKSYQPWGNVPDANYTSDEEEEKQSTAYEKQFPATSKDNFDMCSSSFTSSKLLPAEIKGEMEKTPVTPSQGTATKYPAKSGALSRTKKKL
Chain of STK38L, construct: Full length, human (Q9Y2H1 whole entry, looked up): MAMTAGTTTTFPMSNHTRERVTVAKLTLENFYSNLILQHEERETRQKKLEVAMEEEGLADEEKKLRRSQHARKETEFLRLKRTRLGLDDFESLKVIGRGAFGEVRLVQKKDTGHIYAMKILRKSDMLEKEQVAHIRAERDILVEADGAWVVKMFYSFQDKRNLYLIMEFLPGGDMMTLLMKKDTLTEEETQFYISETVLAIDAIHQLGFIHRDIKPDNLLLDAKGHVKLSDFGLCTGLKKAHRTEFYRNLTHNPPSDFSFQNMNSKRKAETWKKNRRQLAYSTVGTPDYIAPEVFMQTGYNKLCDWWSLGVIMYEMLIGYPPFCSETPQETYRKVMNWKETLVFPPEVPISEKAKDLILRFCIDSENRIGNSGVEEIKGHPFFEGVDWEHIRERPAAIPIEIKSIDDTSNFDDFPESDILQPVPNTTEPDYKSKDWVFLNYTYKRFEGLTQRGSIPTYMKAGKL

STK33, construct: Full length, human (from UniProt Q9BYT3)
relative phosphorylation
Details | at +1 | at +2 | at +3 | at +4 | at -1 | at -2 | at -3 | at -4 | at -5
A fixed | 0.409 | 0.63 | 0.576 | 0.702 | 0.899 | 0.84 | 0.905 | 1.03 | 1.17
D fixed | 0.151 | 0.26 | 0.433 | 0.754 | 0.393 | 0.433 | 0.344 | 0.723 | 0.731
E fixed | 0.158 | 0.243 | 0.451 | 0.951 | 0.572 | 0.411 | 0.355 | 0.681 | 0.709
F fixed | 1.25 | 1.85 | 1.22 | 0.842 | 0.653 | 1.95 | 1.53 | 0.855 | 0.849
G fixed | 0.327 | 0.41 | 0.743 | 1.03 | 0.676 | 0.987 | 1.08 | 1.23 | 1.43
H fixed | 0.745 | 1.82 | 1.31 | 1.12 | 0.933 | 1.39 | 1.07 | 1.19 | 1.25
I fixed | 1.33 | 0.956 | 0.804 | 0.992 | 0.574 | 0.549 | 0.683 | 0.661 | 0.6
K fixed | 2.18 | 0.815 | 2.01 | 1.41 | 2.59 | 0.826 | 0.921 | 1.39 | 1.72
L fixed | 0.893 | 0.654 | 0.657 | 0.801 | 0.812 | 0.865 | 1.62 | 0.77 | 0.603
M fixed | 1.36 | 0.871 | 0.756 | 0.914 | 1.14 | 0.99 | 1.42 | 0.836 | 0.653
N fixed | 0.578 | 0.59 | 0.655 | 0.917 | 0.978 | 1.32 | 0.724 | 1.02 | 1.11
P fixed | 0.217 | 0.394 | 0.564 | 1.38 | 0.306 | 0.43 | 0.915 | 0.924 | 1.12
Q fixed | 1.23 | 0.53 | 0.661 | 0.994 | 1.33 | 0.786 | 0.836 | 0.823 | 0.856
R fixed | 3.13 | 1.16 | 2.98 | 1.28 | 2.9 | 1.34 | 1.66 | 1.42 | 1.5
V fixed | 1.29 | 0.796 | 0.721 | 0.835 | 0.747 | 0.568 | 0.555 | 0.585 | 0.613
W fixed | 0.768 | 1.8 | 1.23 | 1.21 | 0.557 | 1.73 | 1.23 | 1.98 | 1.22
Y fixed | 0.988 | 3.23 | 1.24 | 0.882 | 0.943 | 1.59 | 1.16 | 0.886 | 0.869
pThr fixed | 0.683 | 0.937 | 1.23 | 1.3 | 0.439 | 0.702 | 1.14 | 1.05 | 1.24
pTyr fixed | 0.677 | 11.7 | 1.91 | 1.8 | 0.918 | 0.887 | 1.02 | 0.779 | 1.13

STK38L, construct: Full length, human (from UniProt Q9Y2H1)
relative phosphorylation
Details | at +1 | at +2 | at +3 | at +4 | at -1 | at -2 | at -3 | at -4 | at -5
A fixed | 0.661 | 1.19 | 0.645 | 0.811 | 0.671 | 0.847 | 0.656 | 1.03 | 0.951
D fixed | 1.16 | 2.27 | 1.07 | 1.33 | 0.872 | 0.675 | 0.648 | 0.889 | 0.79
E fixed | 1.1 | 0.721 | 0.987 | 1.21 | 0.636 | 0.712 | 0.554 | 0.812 | 0.582
F fixed | 0.851 | 0.661 | 1.04 | 1.1 | 0.477 | 0.747 | 0.435 | 0.654 | 0.538
G fixed | 1.38 | 2.25 | 1.6 | 1.15 | 1.68 | 1.2 | 0.833 | 1.39 | 0.971
H fixed | 0.83 | 2.05 | 1.22 | 1.11 | 0.979 | 1.6 | 1.18 | 1.26 | 4.33
I fixed | 0.832 | 0.568 | 0.826 | 0.711 | 0.238 | 0.265 | 0.23 | 0.403 | 0.345
K fixed | 0.847 | 0.396 | 0.865 | 0.812 | 1.9 | 2.07 | 2.1 | 1.55 | 1.65
L fixed | 0.804 | 0.421 | 0.788 | 0.856 | 0.619 | 0.315 | 0.243 | 0.481 | 0.433
M fixed | 1.48 | 0.406 | 0.843 | 1.01 | 0.768 | 0.487 | 0.399 | 0.849 | 0.508
N fixed | 1.61 | 1.09 | 1.22 | 1.24 | 1.43 | 1.53 | 1.03 | 0.989 | 0.792
P fixed | 0.532 | 0.81 | 1.27 | 1.24 | 2.64 | 1.45 | 1.94 | 1.89 | 0.701
Q fixed | 1.36 | 1.1 | 0.932 | 1.15 | 1.37 | 1.18 | 0.827 | 0.982 | 0.629
R fixed | 0.577 | 0.391 | 0.59 | 0.588 | 1 | 1.9 | 4.36 | 1.63 | 1.7
V fixed | 0.919 | 0.854 | 0.668 | 0.686 | 0.372 | 0.358 | 0.324 | 0.423 | 0.457
W fixed | 1.09 | 0.958 | 1.39 | 0.955 | 0.545 | 1.01 | 0.598 | 0.942 | 0.884
Y fixed | 0.961 | 0.856 | 1.04 | 1.05 | 0.799 | 0.64 | 0.657 | 0.829 | 0.741
pThr fixed | 1.29 | 0.941 | 0.91 | 1.61 | 0.457 | 0.842 | 0.692 | 0.698 | 0.46
pTyr fixed | 1.26 | 1.04 | 0.87 | 1.05 | 0.76 | 0.814 | 0.914 | 0.895 | 0.672
